In assay [1] the target is T1, _(Alexa488)DDB1 (human, UniProt Q16531 1-1140, SpyTag joined to SpyCatcher (S50C) labelled with Alexa488–C5–maleimide). The assay is described as follows: FRET; compound Z7 titration.
In assay [2] the target is T1, _(Alexa488)DDB1. The assay can be described thus: FRET; compound Z11 titration.
In assay [3] the target is T1, _(Alexa488)DDB1. The assay is described as follows: FRET; compound Z12 titration.
Assay [4] has as its target T1, _(Alexa488)DDB1. The assay is described as follows: FRET; compound HQ461 titration.
The target in assay [5] is T1, _(Alexa488)DDB1. The assay can be described thus: FRET; compound dCeMM3 titration.

What is called EC50 is the concentration giving half of the maximal effect. The low end stands for a more potent agent, the high end for a less potent agent.

T1 sequence (Q16531 whole entry): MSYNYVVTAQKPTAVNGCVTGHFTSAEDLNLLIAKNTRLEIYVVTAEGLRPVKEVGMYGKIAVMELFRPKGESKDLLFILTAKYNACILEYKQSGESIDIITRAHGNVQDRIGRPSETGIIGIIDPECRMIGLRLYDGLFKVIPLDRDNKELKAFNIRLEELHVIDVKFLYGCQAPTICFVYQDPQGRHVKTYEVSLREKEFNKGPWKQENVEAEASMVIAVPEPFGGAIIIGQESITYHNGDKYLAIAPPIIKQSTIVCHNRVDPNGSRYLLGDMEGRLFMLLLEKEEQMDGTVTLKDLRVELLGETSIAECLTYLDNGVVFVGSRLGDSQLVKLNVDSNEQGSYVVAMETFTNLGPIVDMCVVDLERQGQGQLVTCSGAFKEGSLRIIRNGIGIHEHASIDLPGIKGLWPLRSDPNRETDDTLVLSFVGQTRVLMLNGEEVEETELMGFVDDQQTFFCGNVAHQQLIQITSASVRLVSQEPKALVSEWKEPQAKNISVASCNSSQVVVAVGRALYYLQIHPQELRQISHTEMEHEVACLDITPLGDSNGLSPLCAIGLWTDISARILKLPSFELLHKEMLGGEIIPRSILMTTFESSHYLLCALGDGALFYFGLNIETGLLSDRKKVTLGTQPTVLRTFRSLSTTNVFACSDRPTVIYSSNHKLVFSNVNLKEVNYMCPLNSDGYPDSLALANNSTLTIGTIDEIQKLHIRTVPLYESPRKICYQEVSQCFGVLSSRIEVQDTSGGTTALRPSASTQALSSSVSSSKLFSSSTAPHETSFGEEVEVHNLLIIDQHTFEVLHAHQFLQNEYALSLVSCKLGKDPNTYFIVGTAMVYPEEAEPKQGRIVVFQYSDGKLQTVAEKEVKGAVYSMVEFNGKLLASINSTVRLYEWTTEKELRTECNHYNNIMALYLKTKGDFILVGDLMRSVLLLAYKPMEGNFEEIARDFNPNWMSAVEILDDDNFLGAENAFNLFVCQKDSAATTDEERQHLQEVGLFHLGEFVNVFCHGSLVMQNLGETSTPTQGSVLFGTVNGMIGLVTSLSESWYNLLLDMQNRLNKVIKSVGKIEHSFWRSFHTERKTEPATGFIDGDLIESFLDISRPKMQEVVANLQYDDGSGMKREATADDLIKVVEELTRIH

B1: CDK12–cyclin K_(biotin) (complex)
chain 1: not shown
chain 2: MKENKENSSPSVTSANLDHTKPCWYWDKKDLAHTPSQLEGLDPATEARYRREGARFIFDVGTRLGLHYDTLATGIIYFHRFYMFHSFKQFPRYVTGACCLFLAGKVEETPKKCKDIIKTARSLLNDVQFGQFGDDPKEEVMVLERILLQTIKFDLQVEHPYQFLLKYAKQLKGDKNKIQKLVQMAWTFVNDSLCTTLSLQWEPEIIAVAVMYLAGRLCKFEIQEWTSKPMYRRWWEQFVQDVPVDVLEDICHQILDLYSQGKQQMPH
modifications: biotin on the Avi tag (enzymatic, BirA)
B1: the EC50 with _(Alexa488)DDB1 [1] was 303 nM; with _(Alexa488)DDB1 [2], 178 nM; with _(Alexa488)DDB1 [3] it was 833 nM; with _(Alexa488)DDB1 [4], 43 nM; with _(Alexa488)DDB1 [5] it was 263 nM.

The values are drawn from publication PMC10746543 (2023).
